Results as given in patent US7611713.

Biological target: HLA-B*0701 (as printed in the head of Table XXII) (human)
Test: competitive inhibition of radiolabeled standard peptide binding to purified HLA

HBV ENV 313 analog with F at position 1 (peptide; other documents disagree on this pair)
IC50: 24 nM
